Earlier results in PMC10641069, “Intra- and inter-molecular regulation by intrinsically-disordered regions governs PUF protein RNA binding” (Nature Communications, 2023).
“Also recorded” adds a separate entry of the source.

B1: truncated FBF-2: FBF-2 lacking the C-terminal 26 residues (607-632), expressed in worms (protein, UniProt Q09312 1-606, looked up, fragment)
chain: MDQSKMRRTNQFRKTSQKPPSTGIDSYPTPAQSPMAQHETPMWDFNSLNPYFSMLNMNDGINYARHQQNHIVTSRPPTPLTDLMSLRSFQSFPNVFMPVSRSRTSSFIQSDTDSSRLESDDFSQNVRCFSADIDRSKSYGSSKHYHLKYSRPALSRNSRSFTRSNNVLPTWSLDSNGEMRSRLSLSEVLDSGDLMKFAVDKTGCQFLEKAVKGSLTSYQKFQLFEQVIGRKDDFLKLSTNIFGNYLVQSVIGISLATNDDGYTKRQEKLKNFISSQMTDMCLDKFACRVIQSSLQNMDLSLACKLVQALPRDARLIAICVDQNANHVIQKVVAVIPLKNWEFIVDFVATPEHLRQICSDKYGCRVVQTIIEKLTADSMNVDLTSAAQNLRERALQRLMTSVTNRCQELATNEYANYIIQHIVSNDDLAVYRECIIEKCLMRNLLSLSQEKFASHVVEKAFLHAPLELLAEMMDEIFDGYIPHPDTGKDALDIMMFHQFGNYVVQCMLTICCDAVSGRRQTKEGGYDHAISFQDWLKKLHSRVTKERHRLSRFSSGKKMIETLANLRSTHPIYELQSSGHDSFKTDYFSTASEHDGPELEKNGIEEG
B2: full-length FBF-2: worms expressing full-length FBF-2 in an fbf-1 loss-of-function background (protein, UniProt Q09312 1-632, looked up)
chain: MDQSKMRRTNQFRKTSQKPPSTGIDSYPTPAQSPMAQHETPMWDFNSLNPYFSMLNMNDGINYARHQQNHIVTSRPPTPLTDLMSLRSFQSFPNVFMPVSRSRTSSFIQSDTDSSRLESDDFSQNVRCFSADIDRSKSYGSSKHYHLKYSRPALSRNSRSFTRSNNVLPTWSLDSNGEMRSRLSLSEVLDSGDLMKFAVDKTGCQFLEKAVKGSLTSYQKFQLFEQVIGRKDDFLKLSTNIFGNYLVQSVIGISLATNDDGYTKRQEKLKNFISSQMTDMCLDKFACRVIQSSLQNMDLSLACKLVQALPRDARLIAICVDQNANHVIQKVVAVIPLKNWEFIVDFVATPEHLRQICSDKYGCRVVQTIIEKLTADSMNVDLTSAAQNLRERALQRLMTSVTNRCQELATNEYANYIIQHIVSNDDLAVYRECIIEKCLMRNLLSLSQEKFASHVVEKAFLHAPLELLAEMMDEIFDGYIPHPDTGKDALDIMMFHQFGNYVVQCMLTICCDAVSGRRQTKEGGYDHAISFQDWLKKLHSRVTKERHRLSRFSSGKKMIETLANLRSTHPIYELQSSGHDSFKTDYFSTASEHDGPELEKNGIEEGSLMLEPRSNKSSVSVKFSSSGSHGDD
modifications: full-length
notes: worms expressing full-length FBF-2 in an fbf-1 loss-of-function background
B3: FBF-2 Y479A: FBF-2 Y479A expressed in animals (Kimble lab, unpublished) (protein, UniProt Q09312 1-632, looked up, variant Y479A)
Fem-3 mRNA-binding factor 2: MDQSKMRRTNQFRKTSQKPPSTGIDSYPTPAQSPMAQHETPMWDFNSLNPYFSMLNMNDGINYARHQQNHIVTSRPPTPLTDLMSLRSFQSFPNVFMPVSRSRTSSFIQSDTDSSRLESDDFSQNVRCFSADIDRSKSYGSSKHYHLKYSRPALSRNSRSFTRSNNVLPTWSLDSNGEMRSRLSLSEVLDSGDLMKFAVDKTGCQFLEKAVKGSLTSYQKFQLFEQVIGRKDDFLKLSTNIFGNYLVQSVIGISLATNDDGYTKRQEKLKNFISSQMTDMCLDKFACRVIQSSLQNMDLSLACKLVQALPRDARLIAICVDQNANHVIQKVVAVIPLKNWEFIVDFVATPEHLRQICSDKYGCRVVQTIIEKLTADSMNVDLTSAAQNLRERALQRLMTSVTNRCQELATNEYANYIIQHIVSNDDLAVYRECIIEKCLMRNLLSLSQEKFASHVVEKAFLHAPLELLAEMMDEIFDGAIPHPDTGKDALDIMMFHQFGNYVVQCMLTICCDAVSGRRQTKEGGYDHAISFQDWLKKLHSRVTKERHRLSRFSSGKKMIETLANLRSTHPIYELQSSGHDSFKTDYFSTASEHDGPELEKNGIEEGSLMLEPRSNKSSVSVKFSSSGSHGDD
B4: FBF-2 L610A: FBF-2 L610A; attempts to generate animals were unsuccessful (protein, UniProt Q09312 1-632, looked up, variant L610A)
Fem-3 mRNA-binding factor 2: MDQSKMRRTNQFRKTSQKPPSTGIDSYPTPAQSPMAQHETPMWDFNSLNPYFSMLNMNDGINYARHQQNHIVTSRPPTPLTDLMSLRSFQSFPNVFMPVSRSRTSSFIQSDTDSSRLESDDFSQNVRCFSADIDRSKSYGSSKHYHLKYSRPALSRNSRSFTRSNNVLPTWSLDSNGEMRSRLSLSEVLDSGDLMKFAVDKTGCQFLEKAVKGSLTSYQKFQLFEQVIGRKDDFLKLSTNIFGNYLVQSVIGISLATNDDGYTKRQEKLKNFISSQMTDMCLDKFACRVIQSSLQNMDLSLACKLVQALPRDARLIAICVDQNANHVIQKVVAVIPLKNWEFIVDFVATPEHLRQICSDKYGCRVVQTIIEKLTADSMNVDLTSAAQNLRERALQRLMTSVTNRCQELATNEYANYIIQHIVSNDDLAVYRECIIEKCLMRNLLSLSQEKFASHVVEKAFLHAPLELLAEMMDEIFDGYIPHPDTGKDALDIMMFHQFGNYVVQCMLTICCDAVSGRRQTKEGGYDHAISFQDWLKKLHSRVTKERHRLSRFSSGKKMIETLANLRSTHPIYELQSSGHDSFKTDYFSTASEHDGPELEKNGIEEGSLMAEPRSNKSSVSVKFSSSGSHGDD

What was measured:
[1] = target: FBF-2 RBD (Caenorhabditis elegans) (UniProt Q09312); test: ITC; details: cited from earlier work
C. elegans = details: cited from earlier work; for sterile progeny: fbf-1 loss-of-function background, failure to initiate oogenesis, ref 41 (Wang, et al. 2016); for germline phenotype: animals expressing mutant FBF-2, unpublished, ref personal communication, Kimble lab
Text: Our previous structural and biochemical studies relied on FBF-2^164–575, a fragment with the RBD that lacks its intrinsically disordered C-terminal tail but retains its in vivo RNA-binding specificity (Fig. 1a)[17],[18],[36],[39],[40]. […] A worm strain that expresses truncated FBF-2 lacking the C-terminal 26 residues (607-632) was generated in an fbf-1 loss-of-function background. Approximately 11% of the mutant progeny were sterile due to failure to initiate oogenesis, indicating a germline defect. In contrast, worms expressing full-l ... || In the PUF hub, FBF-1 and FBF-2 play a more prominent role than PUF-3 and PUF-11[55]. FBF-1 and FBF-2 amino acid sequences are 91% identical and have largely overlapping functions. […] When the CT of FBF-1 is replaced with the FBF-2 CT, the chimeric protein produces a progenitor region that m ... || page 6: Reviewer #2 (Remarks to the Author): This manuscript uses structural and biochemical approaches to understand how partner proteins and intrinsically disordered regions (IDRs) impact RNA binding of FBF-2. The crystal structure of FBF-2 CT is novel and the proposed role of the CT in autoinhibition by intramolecular interaction with RBD is interesting. However, why this autoinhibition would be needed in vivo is less clear, especially in regard to the interaction with partner proteins. While the authors also mention this shortcoming, some attempt to address the biological consequences of t ...

| Molecule | Kd [1] [nM] | sterile progeny (C. elegans) | germline phenotype (C. elegans) | other results |
| --- | --- | --- | --- | --- |
| LST-1 B LST-1 B (from UniProt P91820) | 50 |  |  |  |
| LST-1 A LST-1 A (from UniProt P91820) | 2100 |  |  |  |
| B1 |  | Approximately 11% |  |  |
| B2 |  | 0% |  | germline progenitor region length (C. elegans; expressed as sole FBF protein, vs FBF-1): shorter germline progenitor regions than FBF-1 |
| B3 |  |  | no defects were detected in germline stem cell self-; also recorded: defect in the sperm-to-oocyte switch |  |
| B4 |  |  | dominant sterile |  |
